The record followed here is patent US20210238260.

Sequences and labels used below:
B1: FIXa variant D203N/F205T/R318Y/E410N (protein)
chain 1: YNSGKLEEFVQGNLERECMEEKCSFEEAREVFENTERTTEFWKQYVDGDQCESNPCLNGGSCKDDINSYECWCPFGFEGKNCELDVTCNIKNGRCEQFCKNSADNKVVCSCTEGYRLAENQKSCEPAVPFPCGRVSVSQTSKLTR
chain 2: VVGGEDAKPGQFPWQVVLNGKVNATCGGSIVNEKWIVTAAHCVETGVKITVVAGEHNIEETEHTEQKRNVIRIIPHHNYNAAINKYNHDIALLELDEPLVLNSYVTPICIADKEYTNIFLKFGSGYVSGWGRVFHKGYSALVLQYLRVPLVDRATCLRSTKFTIYNNMFCAGFHEGGRDSCQGDSGGPHVTEVEGTSFLTGIISWGEECAMKGKYGIYTKVSRYVNWIKNKTKLT
B2: FIXa variant R318Y/R338E/E410N (protein)
chain 1: B1 chain 1
chain 2: B1 chain 2 with N23D, T25F, R158E
B3: FIXa variant Y155F/R318Y/R338E/E410N (protein)
chain 1: B1 chain 1
chain 2: B1 chain 2 with N23D, T25F, R158E
B4: FIXa variant A103N/N105S/Y155F/R318Y/R338E/R403E/E410N (protein)
chain 1: B1 chain 1 with A103N, N105S
chain 2: B1 chain 2 with N23D, T25F, R158E, R223E
B5: FIXa variant Y155F/R318Y/R338E/R403E/E410N (protein)
chain 1: B1 chain 1
chain 2: B1 chain 2 with N23D, T25F, R158E, R223E
B6: FIXa variant R318Y/R338E/R403E/E410N (protein)
chain 1: B1 chain 1
chain 2: B1 chain 2 with N23D, T25F, R158E, R223E
B7: FIXa variant D104N/K106S/R318Y/R338E/E410N (protein)
chain 1: B1 chain 1 with D104N, K106S
chain 2: B1 chain 2 with N23D, T25F, R158E
B8: FIXa variant D104N/K106S/Y155F/R318Y/R338E/R403E/E410N (protein)
chain 1: B1 chain 1 with D104N, K106S
chain 2: B1 chain 2 with N23D, T25F, R158E, R223E
B9: FIXa variant A103N/N105S/R318Y/R338E/R403E/E410N (protein)
chain 1: B1 chain 1 with A103N, N105S
chain 2: B1 chain 2 with N23D, T25F, R158E, R223E
B10: FIXa-D104N/K106S/Y155F/K247N/N249S/R318Y/R338E/R403E/E410N (protein)
chain 1: B1 chain 1 with D104N, K106S
chain 2: B1 chain 2 with N23D, T25F, K67N, N69S, R158E, R223E
B11: FIXa variant K228N/R318Y/E410N (protein)
chain 1: B1 chain 1
chain 2: B1 chain 2 with N23D, T25F, K48N
B12: FIXa variant D104N/K106S/R318Y/R338E/R403E/E410N (protein)
chain 1: B1 chain 1 with D104N, K106S
chain 2: B1 chain 2 with N23D, T25F, R158E, R223E
B13: FIXa variant R318Y/R403E/E410N (protein)
chain 1: B1 chain 1
chain 2: B1 chain 2 with N23D, T25F, R223E
B14: FIXa variant Y155F/R318Y/R403E/E410N (protein)
chain 1: B1 chain 1
chain 2: B1 chain 2 with N23D, T25F, R223E
B15: FIXa-Y155F/K247N/N249S/R318Y/R403E/E410N (protein)
chain 1: B1 chain 1
chain 2: B1 chain 2 with N23D, T25F, K67N, N69S, R223E
B16: FIXa R318Y/R338E/R403E/T412A (protein)
chain 1: B1 chain 1
chain 2: B1 chain 2 with N23D, T25F, R158E, R223E, N230E, T232A
B17: FIXa-K247N/N249S/R338E/R403E/E410N (protein)
chain 1: B1 chain 1
chain 2: B1 chain 2 with N23D, T25F, K67N, N69S, Y138R, R158E, R223E
B18: FIXa-Y155F/R318Y/T343R/R403E/E410N (protein)
chain 1: B1 chain 1
chain 2: B1 chain 2 with N23D, T25F, T163R, R223E
B19: FIXa-K247N/N249S/R318Y/R403E/E410N (protein)
chain 1: B1 chain 1
chain 2: B1 chain 2 with N23D, T25F, K67N, N69S, R223E
B20: FIXa R318Y/R338E/R403E/E410N/T412V (protein)
chain 1: B1 chain 1
chain 2: B1 chain 2 with N23D, T25F, R158E, R223E, T232V
B21: FIXa R318Y/R338E/E410N/T412V (protein)
chain 1: B1 chain 1
chain 2: B1 chain 2 with N23D, T25F, R158E, T232V
B22: FIXa R318Y/R338E/R403E/E410N/T412A (protein)
chain 1: B1 chain 1
chain 2: B1 chain 2 with N23D, T25F, R158E, R223E, T232A
B23: FIXa K293A/R338A/R403A (protein)
chain 1: B1 chain 1
chain 2: B1 chain 2 with N23D, T25F, K113A, Y138R, R158A, R223A, N230E
B24: FIXa-R318Y/T343R/R403E/E410N (protein)
chain 1: B1 chain 1
chain 2: B1 chain 2 with N23D, T25F, T163R, R223E
B25: FIXa-Y155F/R318Y/R338E/T343R/R403E (protein)
chain 1: B1 chain 1
chain 2: B1 chain 2 with N23D, T25F, R158E, T163R, R223E, N230E
B26: FIXa K293E/R338E/R403E (protein)
chain 1: B1 chain 1
chain 2: B1 chain 2 with N23D, T25F, K113E, Y138R, R158E, R223E, N230E
B27: FIXa-R318Y/R338E/T343R/R403E (protein)
chain 1: B1 chain 1
chain 2: B1 chain 2 with N23D, T25F, R158E, T163R, R223E, N230E
B28: FIXa R318Y/R338E/T412A (protein)
chain 1: B1 chain 1
chain 2: B1 chain 2 with N23D, T25F, R158E, N230E, T232A
B29: FIXa Y155F/K228N/K247N/N249S/R318Y/R338E/R403E/E410N (protein)
chain 1: B1 chain 1
chain 2: B1 chain 2 with N23D, T25F, K48N, K67N, N69S, R158E, R223E
B30: FIXa N260S/R318Y/R338E/R403E/E410N (protein)
chain 1: B1 chain 1
chain 2: B1 chain 2 with N23D, T25F, N80S, R158E, R223E
B31: FIXa-R338E/T343R/R403E/E410N (protein)
chain 1: B1 chain 1
chain 2: B1 chain 2 with N23D, T25F, Y138R, R158E, T163R, R223E
B32: FIXa-Y155F/K247N/N249S/R338E/R403E/E410N (protein)
chain 1: B1 chain 1
chain 2: B1 chain 2 with N23D, T25F, K67N, N69S, Y138R, R158E, R223E
B33: FIXa-Y155F/R318Y/R338E/T343R/E410N (protein)
chain 1: B1 chain 1
chain 2: B1 chain 2 with N23D, T25F, R158E, T163R

Changes are numbered by the printed parent chain. Names and notes keep the numbering of the source.

Factor X, P00742, sequence (P00742 whole entry, looked up): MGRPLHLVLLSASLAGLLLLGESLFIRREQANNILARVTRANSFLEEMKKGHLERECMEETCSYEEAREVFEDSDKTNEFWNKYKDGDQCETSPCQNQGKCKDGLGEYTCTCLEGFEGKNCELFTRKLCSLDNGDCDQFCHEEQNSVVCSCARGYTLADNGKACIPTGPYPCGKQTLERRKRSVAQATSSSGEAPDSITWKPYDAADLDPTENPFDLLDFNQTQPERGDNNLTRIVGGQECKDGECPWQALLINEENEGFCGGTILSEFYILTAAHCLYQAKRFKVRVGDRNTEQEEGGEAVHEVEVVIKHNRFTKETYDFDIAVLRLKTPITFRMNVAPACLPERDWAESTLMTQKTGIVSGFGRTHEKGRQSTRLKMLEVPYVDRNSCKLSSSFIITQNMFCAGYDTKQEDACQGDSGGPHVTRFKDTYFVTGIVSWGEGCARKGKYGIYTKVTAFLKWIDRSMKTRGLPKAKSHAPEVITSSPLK
Factor X (FX), P00742, sequence (P00742 whole entry, looked up): as above

The first data set addresses Factor X (FX), P00742.
For B1, the “% of WT kcat/KM” value was 85% and the kcat/KM (as a rule, the turnover number divided by the Michaelis constant) came to 3.9e+07 M⁻¹ s⁻¹.
The matching figures for B2: 727% and 3.4e+08 M⁻¹ s⁻¹.
As to B3, the “% of WT kcat/KM” value is 810% and the catalytic efficiency (kcat/KM) came out at 3.7e+08 M⁻¹ s⁻¹.
Turning to B4, the “% of WT kcat/KM” value is reported as 274% and the kcat/KM is 1.3e+08 M⁻¹ s⁻¹.
As for B5, the “% of WT kcat/KM” value is listed as 406% and the kcat/KM was 1.9e+08 M⁻¹ s⁻¹.
The matching figures for B6: 320% and 1.5e+08 M⁻¹ s⁻¹.
Turning to B7, the “% of WT kcat/KM” value is recorded as 564% and the kcat/KM amounted to 2.6e+08 M⁻¹ s⁻¹.
The matching figures for B8: 382% and 1.8e+08 M⁻¹ s⁻¹.
The matching figures for B9: 318% and 1.5e+08 M⁻¹ s⁻¹.
Turning to B10, the “% of WT kcat/KM” value was found to be 292% and the specificity constant (kcat/KM) was determined as 1.3e+08 M⁻¹ s⁻¹.
Taken in the same sequence, the figures for B11 were 264% and 1.2e+08 M⁻¹ s⁻¹.
The matching figures for B12: 366% and 1.7e+08 M⁻¹ s⁻¹.
The matching figures for B13: 54% and 2.5e+07 M⁻¹ s⁻¹.
Regarding B14, the “% of WT kcat/KM” value is listed as 78% and the specificity constant (kcat/KM) came to 3.6e+07 M⁻¹ s⁻¹.

A further data set has as its target Factor X, P00742.
Regarding B15, the “% of WT kcat/KM” value is 22%; the catalytic constant (kcat) (as a rule, the number of substrate molecules converted per active site and unit of time at saturation) amounted to 1.2 s⁻¹; the specificity constant (kcat/KM) turned out to be 1e+07 M⁻¹ s⁻¹.
Take B16: the “% of WT kcat/KM” value is on record as 173%; the KM (FX activation by FIXa in Xase complex with FVIIIa, PC/PS vesicles, Ca2+) came to 0.0675 µM; the kcat/KM stood at 8e+07 M⁻¹ s⁻¹.
Turning to B17, the “% of WT kcat/KM” value amounted to 422%, the catalytic constant (kcat) amounted to 4.8 s⁻¹ and the kcat/KM came out at 1.9e+08 M⁻¹ s⁻¹.
With B18, the “% of WT kcat/KM” value is 571%, the kcat came out at 8.8 s⁻¹ and the kcat/KM was found to be 2.6e+08 M⁻¹ s⁻¹.
As to B19, the “% of WT kcat/KM” value is 58%, the kcat is 2.9 s⁻¹ and the specificity constant (kcat/KM) was determined as 2.7e+07 M⁻¹ s⁻¹.
Consider B20, for which the “% of WT kcat/KM” value worked out at 342%; the KM (FX activation by FIXa in Xase complex with FVIIIa, PC/PS vesicles, Ca2+) amounted to 0.0483 µM; the kcat/KM is 1.6e+08 M⁻¹ s⁻¹.
Turning to B21, the “% of WT kcat/KM” value is recorded as 571%; the KM (FX activation by FIXa in Xase complex with FVIIIa, PC/PS vesicles, Ca2+) is 0.0236 µM; the specificity constant (kcat/KM) is 2.6e+08 M⁻¹ s⁻¹.
For the protein B22, the “% of WT kcat/KM” value was determined as 538%; the KM (FX activation by FIXa in Xase complex with FVIIIa, PC/PS vesicles, Ca2+) was 0.0344 µM; the kcat/KM came to 2.5e+08 M⁻¹ s⁻¹.
As to B23, the KM of FX activation by FIXa in the Xase complex (FVIIIa, PC/PS vesicles, Ca2+); fluorogenic FXa substrate came to 0.0654 µM.
Turning to B24, the “% of WT kcat/KM” value turned out to be 125%, the turnover number (kcat) is 5.3 s⁻¹ and the kcat/KM worked out at 5.8e+07 M⁻¹ s⁻¹.
In the case of B25, the “% of WT kcat/KM” value is given as 563%, the turnover number (kcat) came to 8.2 s⁻¹ and the kcat/KM stood at 2.6e+08 M⁻¹ s⁻¹.
B26: the KM of FX activation by FIXa in the Xase complex (FVIIIa, PC/PS vesicles, Ca2+); fluorogenic FXa substrate stood at 0.05 µM.
Consider B27, for which the “% of WT kcat/KM” value is listed as 357%, the kcat came out at 6.7 s⁻¹ and the specificity constant (kcat/KM) worked out at 1.6e+08 M⁻¹ s⁻¹.
Take B28: the “% of WT kcat/KM” value is on record as 642%; the KM (FX activation by FIXa in Xase complex with FVIIIa, PC/PS vesicles, Ca2+) was 0.0235 µM; the catalytic efficiency (kcat/KM) came to 3e+08 M⁻¹ s⁻¹.
Taken in the same sequence, the figures for B29 were 263%, 0.0454 µM and 1.2e+08 M⁻¹ s⁻¹.
The matching figures for B30: 114%, 0.0724 µM and 5.3e+07 M⁻¹ s⁻¹.
In the case of B31, the “% of WT kcat/KM” value is 650%, the kcat amounted to 9.8 s⁻¹ and the catalytic efficiency (kcat/KM) was 3e+08 M⁻¹ s⁻¹.
The matching figures for B32: 229%, 5 s⁻¹ and 1.1e+08 M⁻¹ s⁻¹.
The matching figures for B33: 794%, 9.2 s⁻¹ and 3.7e+08 M⁻¹ s⁻¹.
